In the supplement of paper PMC10567573:

B1: SFRS1 (parent)
chain: YSPRRSRGSPRYSPRHSRSRSRT
B2: VAMP4 (parent)
chain: IMALVAAILLLVIIILIVMKYRT

Variants of: B1
Experiment: protein stability index of a GFP-peptide fusion (GPS, HEK-293T) (PSI 1-6); higher = more stable
Conditions: c terminus: native
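Note: lentivirally expressed fusions sorted by FACS into six bins by GFP to DsRed ratio, PSI derived from sequencing read proportions per bin multiplied by bin number.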

Protein stability index: each site, then its substitutions
R11: Q 4.39 | D 2.31 | T 3.29 | F 2.8 | K 3.85 | L 2.85 | Y 2.54 | N 3.98 | W 1.79 | C 2.36 | I 2.73 | P 3.44 | S 3.3 | V 3.05 | M 3.47 | H 3.22 | A 3.25 | E 2.39 | G 3.5
Y1: N 5.03 | G 4.65 | P 4.55 | F 2.96 | T 4.43 | L 3.74 | V 4.65 | A 4.29 | D 3.9 | R 5.25 | M 3.9 | Q 4.55 | W 4.08 | K 4.1 | E 3.92 | I 4.17 | S 4.36 | H 4.86 | C 3.99
G8: I 3.46 | P 3.5 | H 3.55 | Y 3.05 | N 3.7 | T 3.79 | F 2.13 | D 3.45 | Q 3.53 | C 2.98 | K 3.98 | E 3.44 | R 4.58 | L 3 | M 3.19 | W 2.25 | S 4.32 | A 4.22 | V 3.31
P10: C 3.45 | L 3.61 | I 3.41 | N 4.31 | A 4 | E 3.6 | F 3.07 | M 3.73 | D 4.25 | T 4.51 | H 4.38 | R 4.2 | W 3.4 | Q 3 | V 3.69 | Y 3.67 | K 4.4 | G 3.37 | S 4.35
S2: K 3.9 | N 3.54 | Q 3.98 | G 4.27 | H 2.75 | A 2 | V 1.85 | L 4.2 | R 4.84 | I 3.27 | T 3.19 | Y 3.62 | M 3.77 | P 3.71 | W 4.07 | E 4.12 | F 3.52 | D 4.09 | C 1.94
S6: F 3.27 | R 4.01 | H 3.66 | M 3.56 | Y 3.29 | W 3.43 | C 2.81 | G 3.55 | N 3.97 | D 3.83 | L 2.65 | K 3.01 | I 3.22 | E 3.26 | T 4.02 | Q 4.33 | V 3.09 | P 4.39 | A 4.13
P3: H 4.16 | W 3.11 | K 3.56 | T 4.22 | G 4.3 | F 3.91 | N 4.15 | Q 3.72 | V 4.06 | M 3.58 | E 4.18 | C 3.4 | A 3.81 | L 3.8 | R 4.27 | D 4.51 | Y 4.24 | S 4.21 | I 2.8
R4: T 2.83 | G 3.82 | P 3.36 | I 2.65 | A 2.82 | W 2.38 | N 3.13 | K 3.71 | H 3.29 | E 3.12 | Y 2.56 | Q 3.53 | D 2.74 | M 2.76 | F 2.57 | C 2.28 | S 3.56 | L 2.76 | V 3.24
Y12: K 3.73 | L 4.03 | I 3.72 | A 3.89 | D 4.38 | F 3.7 | C 3.61 | E 4.47 | H 3.28
R5: V 2.87 | K 3.14 | S 3.76 | Y 3.01 | I 2.33 | N 3.24 | T 2.8 | F 2.52 | M 3.58 | P 2.75 | A 3.98 | L 2.58 | C 2.92 | W 1.84 | G 3 | D 3.53 | H 4.37 | Q 3.5 | E 3.54
R7: I 1.66 | N 2.92 | T 3.13 | Y 3.38 | H 2.61 | M 2.47 | F 2.43 | C 1.95 | G 2.47 | D 3.22 | Q 3.54 | A 2.97 | E 2.15 | V 2.24 | W 1.95 | L 2.03 | P 2.91 | S 3.4 | K 3.77
S9: T 3.74 | F 3.35 | A 3.94 | R 4.37 | M 3.07 | Y 3.43 | N 4.23 | C 1.83 | K 3.83 | I 3.1 | W 2.29 | G 4.24 | E 3.71 | Q 4.24 | L 3.38 | D 3.99 | H 3.16 | P 3.86 | V 3.8

Variants of: B2
Experiment: as above
Conditions: c terminus: native

Protein stability index: each site, then its substitutions
R22: I 3.65 | D 4.01 | F 3.85 | L 3.4 | K 3.58 | V 3.7 | P 3.06 | G 3.6 | A 3.96 | T 3.93 | M 4.08 | Y 3.56 | S 3.82 | W 4.25 | Q 3.39 | E 3.24 | N 3.2 | H 3.86 | C 4.02
V18: W 3.21 | G 2.66 | R 1.27 | A 2.6 | I 3.54 | F 3.09 | D 2.85 | L 3.26 | H 2.38 | K 1.68 | M 3.39 | E 2.91 | S 2.56 | C 2.93 | Q 2.04 | N 2.33 | Y 2.97 | P 2.72 | T 2.87
Y21: K 1.98 | S 3.37 | A 3.11 | G 3.22 | E 2.71 | F 3.56 | D 2.84 | R 1.81 | L 3.28 | Q 2.99 | P 2.98 | N 3.32 | W 3.48 | C 3.21 | I 3.26 | H 2.58 | M 3.42 | V 2.96 | T 3.13
K20: F 3.67 | W 4.14 | R 3.15 | I 3.75 | C 3.3 | Y 3.38 | T 3.59 | H 3.54 | Q 2.82 | S 4.02 | E 3.49 | A 3.68 | G 3.37 | M 3.62 | V 4.06 | N 3.25 | P 2.62 | L 2.93 | D 3.1
M19: K 2.77 | S 3.33 | A 2.88 | I 3.64 | C 2.78 | H 3.08 | R 2.91 | D 3.19 | F 3.48 | Q 2.51 | Y 3.09 | W 3.11 | T 2.72 | E 3.07 | L 3.68 | G 2.99 | N 3.33 | P 2.66 | V 3.41
I17: Y 2.21 | W 2.44
T23: A 3.69 | E 2.74 | Y 3.37 | L 3.06 | M 3.39 | F 3.3 | V 3.3 | P 3.28 | K 2.31 | H 3.48 | G 3.81 | D 3.27 | I 2.95 | C 3.53 | R 2.99 | Q 3.1 | W 3.69 | S 3.11 | N 3.18
